We go through three molecules from patent US10407503B2, “Fully human antibodies and fragments recognizing human c-Met” (THE REGENTS OF THE UNIVERSITY OF CALIFORNIA, priority 2012, dated 2019).

“Also recorded” adds a separate entry of the source.

Assay [1] addresses T1, c-MET on the surface of Hcc827 or Hcc827-GR6 cells (human, UniProt P08581 25-1390).
T1 construct: whole, on cells; The cells express the receptor endogenously, and MET is amplified in Hcc827-GR6; also called cell surface MET
As to the kind of experiment: phage flow cytometry on Hcc827 cells, bound phage detected with FITC anti-M13 antibody. The method, then:
For phage antibodies, flow cytometry was used to confirm their binding to c-MET expressing cells. Bacteria culture containing phage was concentrated 30 times into PBS according to published method (Antibody Engineering Methods and Protocols, Benny K. C. Lo). $2 \sim 5 \times 10^5$ c-MET positive Hcc827 or Hcc827-GR6 cells (Engelman et. al, Science, 2007) were incubated with 100 ul concentrated phage and 30 ul 4% milk-PBS on ice for 1 hour. Cells were then washed using flow buffer (PBS, 1% FBS, 2 mM EDTA), and the binding phage antibodies were detected by FITC conjugated anti-M13 monoclonal antibody (Santa Cruz Biotechnology, Cat# sc-53005 Fitc).
In general terms: A flow cytometer gives signals particle by particle.

A further assay addresses T2, human MET protein (Homo sapiens, UniProt P08581).
T2 construct: purchased Sino Biological Inc
The assay is described as follows: Anti-MET ELISA, human MET-hIgG Fc captured by coated cys-diabodies. It is filed as binding. As to conditions: coated cys-diabody captures human MET-hFc. On the procedure: (§1) Three rounds of selections on human MET protein were performed which were successfully reformatted and purified 3 cys-diabodies. C2, H2 and H5 cys-diabodies were tested for cross-reactivity to mouse MET protein. Different cys-diabodies were coated to 96-well plate (milk or anti-EpCAM cys-diabody was used as negative control). Either mouse or human MET protein was applied to the coated cys-diabodies. Then the MET-hFc proteins were detected by anti-human Fc antibody.
(§2) 1 μg of purified anti-MET cys-diabodies in […], PBS were used to coat each well at 4 degree overnight. Anti-EpCAM cys-diabody or 2% milk-PBS were used for negative controls. The overnight coated plate was then washed with PBS and blocked with 2% milk-PBS at 37 degree for 2 hours. […] The captured human or mouse MET-hIgG Fc were detected with alkaline phosphatase conjugated goat anti-human IgG.
(§3) C2, H2 and H5 cys-diabodies were used to coat 96-well ELISA plate to capture human or mouse MET-hIgG Fc fusion protein. The human IgG Fc on the fusion protein was detected with alkaline phosphatase conjugated goat anti-human IgG. […]
(§4) Three rounds of selections on human MET protein were performed, and three cys-diabodies were reformatted and purified (the C2, H2 and H5 cys-diabodies). […] Then the MET-hFc proteins were detected by anti-human Fc antibody.

The target in another assay is T3, mouse MET protein (Mus musculus, UniProt P16056).
T3 construct: purchased Sino Biological Inc
T3 sequence (P16056 with tags, fused parts or gaps limits assumed): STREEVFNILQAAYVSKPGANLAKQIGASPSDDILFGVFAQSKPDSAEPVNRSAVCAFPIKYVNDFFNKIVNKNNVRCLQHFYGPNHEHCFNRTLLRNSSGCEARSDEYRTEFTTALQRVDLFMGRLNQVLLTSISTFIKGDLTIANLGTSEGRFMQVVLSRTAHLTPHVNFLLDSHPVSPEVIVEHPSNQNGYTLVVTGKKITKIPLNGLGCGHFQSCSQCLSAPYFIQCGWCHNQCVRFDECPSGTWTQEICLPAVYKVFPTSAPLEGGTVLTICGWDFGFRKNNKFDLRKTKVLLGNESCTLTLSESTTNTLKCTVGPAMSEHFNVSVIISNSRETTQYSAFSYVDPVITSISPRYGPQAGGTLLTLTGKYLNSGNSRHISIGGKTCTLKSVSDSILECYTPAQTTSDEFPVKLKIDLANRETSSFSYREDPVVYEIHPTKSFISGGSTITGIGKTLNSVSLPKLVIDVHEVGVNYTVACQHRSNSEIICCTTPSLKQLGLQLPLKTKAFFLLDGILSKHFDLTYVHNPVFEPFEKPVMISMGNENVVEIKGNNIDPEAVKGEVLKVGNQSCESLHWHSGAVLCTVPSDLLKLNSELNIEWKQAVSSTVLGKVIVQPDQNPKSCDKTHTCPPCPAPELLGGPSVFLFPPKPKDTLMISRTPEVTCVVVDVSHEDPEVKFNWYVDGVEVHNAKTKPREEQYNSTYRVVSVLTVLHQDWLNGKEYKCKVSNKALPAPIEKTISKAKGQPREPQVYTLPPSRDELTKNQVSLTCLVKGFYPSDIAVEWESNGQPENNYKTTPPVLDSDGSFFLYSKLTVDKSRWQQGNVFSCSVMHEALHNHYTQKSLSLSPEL
T3 sequence (P16056 25-306 limits assumed): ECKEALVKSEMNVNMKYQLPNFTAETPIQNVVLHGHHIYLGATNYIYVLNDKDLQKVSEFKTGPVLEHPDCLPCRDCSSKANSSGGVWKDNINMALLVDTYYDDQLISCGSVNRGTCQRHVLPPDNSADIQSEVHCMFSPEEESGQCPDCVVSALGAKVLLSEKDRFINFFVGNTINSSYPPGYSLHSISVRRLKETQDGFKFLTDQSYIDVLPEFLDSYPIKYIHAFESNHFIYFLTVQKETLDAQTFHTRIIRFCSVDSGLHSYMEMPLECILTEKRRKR
The assay is described as follows: Anti-MET ELISA, mouse MET-hIgG Fc captured by coated cys-diabodies (cross reactivity). It is filed as binding. As to conditions: coated cys-diabody captures mouse MET-hFc. The method, then: as §1, §2, §3, §4

A further assay deals with Hcc827-GR6 cells. As to the kind of experiment: MTS cell growth assay, gefitinib resistant Hcc827-GR6 cells. As to conditions: 3 days, with or without 1 μM gefitinib, MET amplified. It is filed as cell-based. The method, then: (§5) These diabodies also show therapeutic effects on resistant cells with MET amplification. […] The diabodies were also applied to the resistant cell line GR6 with or without 1 μM gefitinib.
(§6) Cell growth and inhibition were evaluated by MTS assay. The MTS assay was based on the ability of live cells to convert 3-(4,5-dimethylthiazol-2-yl)-5-(3-carboxymethoxyphenyl)-2-(4-sulfophenyl)-2H-tetrazolium (MTS) to formazan. The quantity of formazan product was measured by 500 nm absorbance, which is proportional to the number of living cells in culture. The assay was performed with the CellTiter96 AQueous Assay Kit from Promega (Cat# G5421), according to the recommended protocol. 2×10^4 cells were seeded in each well of the 96-well plates and treated with different combination of antibodies and drugs for 3 days before the MTS assay. Each combination of cell line and drug and antibody treatment was set up in at least 4 replicate wells. And the results were normalized to the cells treated with media only.
(§7) Different cell lines were treated with C2, H2 or H5 cys-diabodies at different concentrations with or without 1 micromolar of gefitinib for 3 days, and then the cell growth was evaluated with MTS assay. […] All three cys-diabodies show no effects on the parental Hcc827 cells without gefitinib.
These diabodies also show therapeutic effects on resistant cells with MET amplification. The parental cell line, Hcc827, was treated with the diabodies for 3 days, and the diabodies show no effects on the growth of the parental line at all.
For orientation: Formazan colour is commonly taken as a measure of viable cells.

The test system of the next assay is Hcc827 cells. As to the kind of experiment: MTS cell growth assay, parental Hcc827 cells. It is filed as cell-based. Conditions: 3 days, with 1 micromolar gefitinib. The method, then: as §5, §6, §7
These diabodies also show therapeutic effects on resistant cells with MET amplification. […]

T2 sequence (P08581 with tags, fused parts or gaps limits assumed): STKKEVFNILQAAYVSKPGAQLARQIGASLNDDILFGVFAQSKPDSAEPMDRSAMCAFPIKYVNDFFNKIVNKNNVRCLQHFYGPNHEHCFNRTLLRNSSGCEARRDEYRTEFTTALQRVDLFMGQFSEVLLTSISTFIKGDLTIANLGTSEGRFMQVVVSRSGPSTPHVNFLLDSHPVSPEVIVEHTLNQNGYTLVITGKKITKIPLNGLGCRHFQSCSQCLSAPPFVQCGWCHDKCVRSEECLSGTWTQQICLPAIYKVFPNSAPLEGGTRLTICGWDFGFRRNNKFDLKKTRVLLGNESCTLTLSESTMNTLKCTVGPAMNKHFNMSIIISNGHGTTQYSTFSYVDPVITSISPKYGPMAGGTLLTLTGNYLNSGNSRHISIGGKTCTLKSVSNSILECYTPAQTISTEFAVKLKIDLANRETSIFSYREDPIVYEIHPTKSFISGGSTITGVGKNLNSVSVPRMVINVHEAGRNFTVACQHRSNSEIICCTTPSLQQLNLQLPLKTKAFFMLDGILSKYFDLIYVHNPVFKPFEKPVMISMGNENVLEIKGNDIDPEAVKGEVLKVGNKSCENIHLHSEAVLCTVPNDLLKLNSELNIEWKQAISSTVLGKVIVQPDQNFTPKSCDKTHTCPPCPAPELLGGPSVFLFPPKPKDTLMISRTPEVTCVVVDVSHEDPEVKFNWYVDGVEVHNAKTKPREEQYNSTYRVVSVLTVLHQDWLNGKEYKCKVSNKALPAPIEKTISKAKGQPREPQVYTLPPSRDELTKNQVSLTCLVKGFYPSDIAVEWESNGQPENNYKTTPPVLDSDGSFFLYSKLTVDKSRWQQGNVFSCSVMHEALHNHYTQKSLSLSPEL
T2 sequence (P08581 25-307 limits assumed): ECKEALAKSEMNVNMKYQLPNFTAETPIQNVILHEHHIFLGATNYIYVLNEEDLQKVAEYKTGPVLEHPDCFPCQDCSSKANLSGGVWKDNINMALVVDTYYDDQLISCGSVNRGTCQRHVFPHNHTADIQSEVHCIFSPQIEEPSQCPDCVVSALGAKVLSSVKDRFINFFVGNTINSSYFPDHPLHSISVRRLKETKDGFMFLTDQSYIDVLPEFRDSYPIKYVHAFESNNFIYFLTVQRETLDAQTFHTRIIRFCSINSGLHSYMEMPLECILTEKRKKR
T1 sequence (P08581 25-1390): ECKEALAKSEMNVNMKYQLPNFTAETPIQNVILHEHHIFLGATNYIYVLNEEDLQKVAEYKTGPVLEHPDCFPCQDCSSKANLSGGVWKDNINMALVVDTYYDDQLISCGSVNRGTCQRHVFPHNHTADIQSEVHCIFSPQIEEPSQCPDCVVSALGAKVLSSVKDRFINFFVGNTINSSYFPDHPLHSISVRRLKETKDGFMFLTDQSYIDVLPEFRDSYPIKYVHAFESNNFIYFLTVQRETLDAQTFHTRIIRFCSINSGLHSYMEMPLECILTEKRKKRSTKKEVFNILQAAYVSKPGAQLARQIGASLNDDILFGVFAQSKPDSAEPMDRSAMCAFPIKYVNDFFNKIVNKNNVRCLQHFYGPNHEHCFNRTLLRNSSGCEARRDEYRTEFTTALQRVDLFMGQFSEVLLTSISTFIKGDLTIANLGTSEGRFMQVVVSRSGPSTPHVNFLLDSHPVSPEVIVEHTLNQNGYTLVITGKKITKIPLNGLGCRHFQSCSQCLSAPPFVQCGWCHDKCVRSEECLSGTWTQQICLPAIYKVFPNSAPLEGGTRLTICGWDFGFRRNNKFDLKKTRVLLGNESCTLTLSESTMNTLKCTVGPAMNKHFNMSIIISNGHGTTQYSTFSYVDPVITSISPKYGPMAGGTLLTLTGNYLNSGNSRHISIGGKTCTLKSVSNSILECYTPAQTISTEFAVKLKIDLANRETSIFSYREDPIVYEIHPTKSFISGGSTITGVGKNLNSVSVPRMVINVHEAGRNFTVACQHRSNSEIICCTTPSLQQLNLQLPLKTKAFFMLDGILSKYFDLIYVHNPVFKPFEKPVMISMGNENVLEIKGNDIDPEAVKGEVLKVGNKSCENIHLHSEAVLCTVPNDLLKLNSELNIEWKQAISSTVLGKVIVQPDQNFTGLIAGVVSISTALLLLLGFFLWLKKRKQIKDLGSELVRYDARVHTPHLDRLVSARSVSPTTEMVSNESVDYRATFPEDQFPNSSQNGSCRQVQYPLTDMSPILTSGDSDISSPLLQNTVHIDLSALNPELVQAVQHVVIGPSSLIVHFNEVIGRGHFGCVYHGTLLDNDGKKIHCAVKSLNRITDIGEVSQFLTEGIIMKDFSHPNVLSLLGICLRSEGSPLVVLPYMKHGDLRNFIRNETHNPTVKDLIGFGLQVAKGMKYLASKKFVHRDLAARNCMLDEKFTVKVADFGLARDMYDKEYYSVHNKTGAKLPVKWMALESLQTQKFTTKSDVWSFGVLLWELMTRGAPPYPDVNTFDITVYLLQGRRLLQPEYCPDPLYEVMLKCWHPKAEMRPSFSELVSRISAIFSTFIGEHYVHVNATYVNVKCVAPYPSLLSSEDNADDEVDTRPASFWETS

B1: F1 ScFv antibody (phage-displayed) (scFv)
scFv: QVQLVQSGAEVKKPGASVKVSCKASGYTFTDYYMHWVRQAPGEGLEWMGWMNPNSGGTNYAQKFQGRVTMTRDTSISTAYMELSRLRSDDTAVYYCARSHYWDSWSPGTLVTVSSGGGGGSGGGGSGGGGSSALTQPASVSGSPGQSITISCTGTSGDVGGYNYVSWYQQHPGKAPKLMIYDVSNRPSGVSNRFSGSKSGNTASLTISGLQAEDEADYYCTSYAGSRNLVFGGGTKLTVLG
notes: The fusion to the phage coat protein is not described
Turning to B1, the binding result in assay [1] is “binds”.

B2: H5 cys-diabody: human anti-c-Met cys-diabody comprising SEQ ID NO:24 (protein)
chain: QVQLQESGGGLVQPGGSLRLSCAASGFTFSNYAMSWVRQAPGKGLEWVSAISGSGGSTYYADSVKGRFTISRDNSKNTLYLQMNSLRAEDTAVYYCAKDRFRAAAYWGQGTLVTVSSGGGGGSQSVLTQPPSVSAAPGQKVTISCTGSSSNIGAGYDVHWYQQLPGTAPKLLIYGNSNRPSGVPDRFSGSKSGTSASLAISGLQSEDEADYYCAAWDDILNGEIFGGGTKVTVLGAAAEQKLISEEDLNGAAHHHHHHC
modifications: H5 cys-diabody sequence
As to B2, the “binding to human MET protein” value with human MET protein is recorded as “bind to only human MET”. Besides, the “cross reactivity to mouse MET protein” value with mouse MET protein is listed as “bind to only human MET; also recorded: minimal cross reactivity to the mouse MET”. Also, the “inhibition of growth of resistant Hcc827-GR6 cells” value in the assay with Hcc827-GR6 cells was “inhibition of the resistant cells at higher concentration”; with Hcc827-GR6 cells (listed as H5 diabody) it was “some inhibition at high concentrations; also recorded: inhibition only at high concentrations”.

B3: C2 cys-diabody: human anti-c-Met cys-diabody comprising SEQ ID NO:18 (protein)
chain: QVQLQESGGGLVQPGGSLRLSCAASGFTFSSYAMSWVRQAPGKGLEWVSAISGSGGSTYYADSVKGRFTISRDNSKNTLYLQMNSLRAEDTAVYYCASQHVGEQSRYFDYWGQGTLVTVSSGGGGGSDIVMTQSPSSLSASIGDRVTITCRASHSISSYVNWYQKKPGKAPNLLIYAASYLPRGVPSRFSGSGLGTDFTLTISNLQPEDFATYYCQESYSTPYSFGQGTKVDIKRAAAEQKLISEEDLNGAAHHHHHHC
modifications: C2 cys-diabody sequence
On to B3, for which the “binding to human MET protein” value with human MET protein was “bind to only human MET”. The “cross reactivity to mouse MET protein” value with mouse MET protein is “bind to only human MET; also recorded: minimal cross reactivity to the mouse MET”. Moreover, the “effect on growth of sensitive Hcc827 cells with gefitinib” value in the assay with Hcc827 cells was “protects the sensitive Hcc827 cells from gefitinib inhibition”. Besides, the “inhibition of growth of resistant Hcc827-GR6 cells” value with Hcc827-GR6 cells (listed as C2 diabody) is “some inhibition at high concentrations; also recorded: inhibition only at high concentrations”.
